Assay results as given in article PMC3072069.

Experiments:
CFP1 CXXC domain [1] = molecular target: T1, CFP1 CXXC domain (Homo sapiens, UniProt Q9P0U4 161-222); test: ITC
CFP1 CXXC domain [2] = molecular target: T1, CFP1 CXXC domain; test: crystal structure
CFP1 CXXC R213A = CFP1 CXXC R213A (Homo sapiens, UniProt Q9P0U4 161-222, R213A); test: ITC
CFP1 CXXC Y216A = CFP1 CXXC Y216A (Homo sapiens, UniProt Q9P0U4 161-222, Y216A); test: ITC
[3] = molecular target: CFP1 CXXC domain, longer construct (Homo sapiens, UniProt Q9P0U4 152-222); test: ITC
CFP1 CXXC domain, longer construct, sequence (Q9P0U4 152-222): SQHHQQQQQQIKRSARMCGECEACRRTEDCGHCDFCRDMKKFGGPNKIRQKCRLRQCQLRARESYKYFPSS

CFP1 CXXC domain [4] = molecular target: T1, CFP1 CXXC domain; test: EMSA

T1 sequence (Q9P0U4 161-222): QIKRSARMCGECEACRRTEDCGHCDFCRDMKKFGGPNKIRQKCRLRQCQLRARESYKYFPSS
CFP1 CXXC R213A, sequence (Q9P0U4 161-222 R213A): as the sequence (Q9P0U4 161-222) above, with R53A counted along it
CFP1 CXXC Y216A, sequence (Q9P0U4 161-222 Y216A): as the sequence (Q9P0U4 161-222) above, with Y56A counted along it

B1: GCGG (dsDNA)
DNA 1: GCCAGCGGTGGC
DNA 2: GCCACCGCTGGC
For B1, the Kd (CFP1 CXXC domain [1]) was 3 ± 0.2 µM.

B2: ACGT (dsDNA)
DNA 1: GCCAACGTTGGC
DNA 2: GCCAACGTTGGC
B2: binds (CFP1 CXXC domain [2]).

B3: CCGG1 (dsDNA)
DNA 1: GCCACCGGTGGC
DNA 2: GCCACCGGTGGC
Binder B3 has a Kd (CFP1 CXXC R213A) of 179 ± 30 µM, a Kd (CFP1 CXXC Y216A) of 11 ± 2 µM and a Kd (CFP1 CXXC domain [1]) of 3.5 ± 0.3 µM. For the same binder, the Kd [3] was 2700 ± 300 nM.

B4: ACGG (dsDNA)
DNA 1: GCCAACGGTGGC
DNA 2: GCCACCGTTGGC
B4 showed a Kd (CFP1 CXXC domain [1]) of 2.5 ± 0.2 µM.

B5: TCGA (dsDNA)
DNA 1: GCCATCGATGGC
DNA 2: GCCATCGATGGC
B5: binds (CFP1 CXXC domain [2]).

B6: CCGG2 (dsDNA)
DNA 1: GCCCCCGGGGGC
DNA 2: GCCCCCGGGGGC
B6 was tested, and the Kd (CFP1 CXXC domain [1]) was 4.4 ± 0.3 µM.

B7: GC (GGCC), no CpG (dsDNA)
DNA 1: GCCAGGCCTGGC
DNA 2: GCCAGGCCTGGC
B7: no binding (CFP1 CXXC domain [4]).

B8: TCGT (dsDNA)
DNA 1: GCCATCGTTGGC
DNA 2: GCCAACGATGGC
B8: binds (CFP1 CXXC domain [2]).
